Test [1] concerns the target T1, ヒト可溶性CD4 (human soluble CD4 prepared in Example 2, C-terminal FLAG-tag, from COS7 cells) (human, UniProt P01730 26-396).
T1 construct: extracellular domain; no cleavage site is stated; also called ヒトCD4; CD4分子
Briefly: SPR (BIAcore 2000), antibody amine-coupled on CM5, soluble CD4 as analyte. Background: Surface plasmon resonance follows binding to a sensor surface in real time, without labels.

Test [2] concerns the target T1, ヒト可溶性CD4 (human soluble CD4 prepared in …). The test is described as follows: SPR (BIAcore 2000), soluble CD4 amine-coupled on CM5, antibody (50 ug/ml) as analyte.

A word on the Kd: it is the concentration at which binding is half-saturated. Read a high Kd as weaker binding. For orientation: koff means the first-order rate constant of dissociation. Higher therefore signals a short-lived complex. By kon is commonly meant the rate constant with which the complex forms. A lower kon goes with slow association.

B1: 4H5 抗体 (monoclonal antibody produced by Mouse-Mouse hybridoma 4H5, FERM P-16807) (antibody, IgG1, V domains shown)
VH: QVQLQQSGPELVKPGASVKMSCKASGYTFTDYVINWLNQRTGQGLEWIGEIYPGSGSAYYNEMFKGKATLTADKSSNTAYMQLSSLTSEDSAVYFCARRGTGTGFAYWGRGTLVTVSA
VL: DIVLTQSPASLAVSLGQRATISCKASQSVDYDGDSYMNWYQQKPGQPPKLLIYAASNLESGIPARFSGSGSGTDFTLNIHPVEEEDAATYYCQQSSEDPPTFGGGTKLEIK
notes: also called 4H5 antibody; 抗ヒトCD4抗体 4H5
Turning to B1, in test [1], binding was put at a Kd of 1.71 nM, the “fold higher binding affinity than 13B8.2抗体 (comparison of KD)” value was about 4.4 fold, the koff stood at 0.000231 s⁻¹ and the kon is 135000 M⁻¹ s⁻¹. In test [2], this molecule registered a Kd of 0.808 nM, a koff of 5.33e-06 s⁻¹ and a kon of 6600 M⁻¹ s⁻¹.

B2: キメラ 4H5抗体 (ヒトマウスキメラ抗CD4抗体, expressed from pG14H5 in COS7 cells) (antibody, V domains shown)
VH: QVQLQQSGPELVKPGASVKMSCKASGYTFTDYVINWLNQRTGQGLEWIGEIYPGSGSAYYNEMFKGKATLTADKSSNTAYMQLSSLTSEDSAVYFCARRGTGTGFAYWGRGTLVTVSA
VL: not shown
In test [2], B2 showed a Kd of 1.24 nM, a koff of 2.92e-05 s⁻¹ and a kon of 23600 M⁻¹ s⁻¹.

For the origin of these results see patent JPH11332563A (dated 1999).
